According to paper PMC4895442, “Geometrical assembly of ultrastable protein templates for nanomaterials” (Nature Communications, 2016):

B1: γ-prefoldin (γPFD), wild type (natural protein, Methanocaldococcus jannaschii, UniProt Q58064 1-147, looked up)
chain: MVNEVIDINEAVRAYIAQIEGLRAEIGRLDATIATLRQSLATLKSLKTLGEGKTVLVPVGSIAQVEMKVEKMDKVVVSVGQNISAELEYEEALKYIEDEIKKLLTFRLVLEQAIAELYAKIEDLIAEAQQTSEEEKAEEEENEEKAE
notes: γ-prefoldin (γPFD), filamentous prefoldin-family chaperone of the hyperthermophile Methanocaldococcus jannaschii; wild type; Assembles into filaments of variable length through the β-sheets X1 and X2; also called γPFD filaments; γPFD subunits

Experiments:
[1] = molecular target: TERM-foldon three-way connector (Methanocaldococcus jannaschii | bacteriophage T4) (UniProt P10104); experiment: SDS-PAGE without heating; refolded three-way connector dialyzed against PBS, SDS loading buffer added, incubated at 25-100 °C for 5 min, 10-20% gradient SDS-PAGE; the foldon trimer resists SDS
[2] = molecular target: the molecule itself; experiment: negative-stain TEM; proteins refolded together at varying molar ratios, diluted in PBS to 20 μg/ml, on carbon/formvar grids, 2% uranyl acetate

| Molecule | stoichiometry N [1] | binding result [2] |
| --- | --- | --- |
| TERM-foldon three-way connector (from UniProt P10104 2-81) | 3 | – |
| B1 | – | binds |
